Experiment [1] deals with VpreB1 protein (Homo sapiens (Human)) (UniProt P12018). In words: flow cytometry, 1 ug FITC-conjugated antibody on 1x10^6 CA46 cells (endogenous VpreB1).
The target is the same in experiment [2]. In words: flow cytometry, 1 ug FITC-conjugated antibody on 1x10^6 GA-10 cells (endogenous VpreB1).
Experiment [3] has the same target. In words: flow cytometry, 1 ug FITC-conjugated antibody on 1x10^6 HT cells (no detectable VpreB1 mRNA in Table 1; in effect a VpreB1-negative line). (A flow cytometer gives signals particle by particle.)

Sequence of UniProt P12018 (P12018 20-145 limits assumed): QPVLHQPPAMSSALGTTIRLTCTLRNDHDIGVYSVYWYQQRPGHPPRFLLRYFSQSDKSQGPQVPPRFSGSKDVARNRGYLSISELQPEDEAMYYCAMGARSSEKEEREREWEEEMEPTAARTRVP

For the substance “FITC-conjugated anti-VpreB1 monoclonal antibody (Serotec, Raleigh, N.C.)”, the figures for the % of cells surface labeled (gate M1) in experiment [1], in experiment [2] and in experiment [3] were 69%, 91% and 3%, respectively.

The values above are taken from patent US20030215453A1.
